Data set [1] concerns the target T1, prostate-specific antigen (PSA) (human, UniProt P07288 25-261). Briefly: ELONA (direct); significant signal from 250 nM, 5 mM MgCl2; ELONA: PSA 250 ng/well adsorbed; aptamers 3.9-500 nM in PBS + 5 mM MgCl2, 1 h at 37 C; block 3% BSA + 100 nM ssDNA mix; wash PBS 0.05% Tween-20. As to conditions: protein: commercial; label: biotin; stem-loops nt 4-14 and 17-30 (predicted).

For data set [2], the target named is T1, prostate-specific antigen (PSA). The experiment in a line: ELONA (direct); 3.9-500 nM aptamer, 5 mM MgCl2; ELONA: PSA 250 ng/well adsorbed; aptamers 3.9-500 nM in PBS + 5 mM MgCl2, 1 h at 37 C; block 3% BSA + 100 nM ssDNA mix; wash PBS 0.05% Tween-20. As to conditions: protein: commercial; label: biotin.
Data set [3] has the same target. The experiment in a line: ELONA (direct); significant signal from 250 nM; affinity comparable to AS2; 5 mM MgCl2; ELONA: PSA 250 ng/well adsorbed; aptamers 3.9-500 nM in PBS + 5 mM MgCl2, 1 h at 37 C; block 3% BSA + 100 nM ssDNA mix; wash PBS 0.05% Tween-20. As to conditions: protein: commercial; label: biotin; 15 bp duplex at 3' end of AS2-tail, 5' overhang 32 nt of AS2-tail.

Data set [4] has the same target. Briefly: DLS and plasmon shift (aggregate disassembly); response down to 10 fM PSA in buffer, 1 pM in filtered plasma; ELONA: PSA 250 ng/well adsorbed; aptamers 3.9-500 nM in PBS + 5 mM MgCl2, 1 h at 37 C; block 3% BSA + 100 nM ssDNA mix; wash PBS 0.05% Tween-20. As to conditions: protein: commercial; label: US-AuNP; 15 bp duplex at 3' end of AS2-tail, 5' overhang 32 nt; about 8 ssDNA per particle.

Here are results for four molecules from publication PMC12787490, “PSA-Responsive Aptamer-Based Switchable Aggregates of Ultrasmall Gold Nanoparticles”.

T1 sequence (P07288 25-261): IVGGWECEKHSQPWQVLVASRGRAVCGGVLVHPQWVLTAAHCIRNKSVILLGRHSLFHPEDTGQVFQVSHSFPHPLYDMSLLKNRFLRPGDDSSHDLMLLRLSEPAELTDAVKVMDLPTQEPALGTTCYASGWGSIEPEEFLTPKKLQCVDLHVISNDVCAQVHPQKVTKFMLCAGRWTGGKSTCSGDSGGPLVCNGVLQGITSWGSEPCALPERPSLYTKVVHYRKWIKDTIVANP

As to GGGCGGGGCGGACGAGACAGTAAGGGCTGTGGGTGTGGTG (structured_DNA, 3' biotin) [AS2-biotin], the binding result in data set [1] was “binds”.
As for ATTAAAGCTCGCCATCAAATAGC (ssDNA, biotin) [aPSA-biotin], the binding result in data set [2] is “no binding”.

B1: AS2-tail-biotin:RevAS2 (mixed)
DNA: GGGCGGGGCGGACGAGACAGTAAGGGCTGTGGGTGTGGTGTTTTTTT
?: AAAAAAACACCACAC
modifications: 3' biotin on AS2-tail
Turning to B1, in data set [3], the binding result is “binds”.

B2: AS2-tail-thio:RevAS2-thio (AS2-US-AuNP-Aggregate) (mixed)
DNA: GGGCGGGGCGGACGAGACAGTAAGGGCTGTGGGTGTGGTGTTTTTTT
?: AAAAAAACACCACAC
modifications: 3' thiol on AS2-tail, 5' thiol on RevAS2; conjugated to gold nanoparticles
Take B2: in data set [4], the binding result was “binds”.
